Reference: patent publication US5994105

Biological target: commercially available renin (SIGMA)
Settings: scale: % remaining renin activities

Remaining renin activities (%): 48
Substance: rat acylglucosamine 2-epimerase obtained in example 4 (from UniProt P51607) (enzyme)
